# Reference: US20140322242A1, “MATERIALS AND METHODS FOR THE PREVENTION AND TREATMENT OF CANCER” (Icahn School of Medicine at Mount Sinai, priority 2010, published 2014)
# B1: G-CSF: human recombinant granulocyte-colony stimulating factor (Amgen), hematopoietic growth factor (protein, UniProt P09919 31-207, looked up)
# Granulocyte …: TPLGPASSLPQSFLLKCLEQVRKIQGDGAALQEKLVSECATYKLCHPEELVLLGHSLGIPWAPLSSCPSQALQLAGCLSQLHSGLFLYQGLLQALEGISPELGPTLDTLQLDVADFATTIWQQMEELGMAPALQPTQGAMPAFASAFQRRAGGVLVASHLQSFLEVSYRVLRHLAQP
# What was measured:
# PC-3luc cells [1] = assay: Xenogeneic orthotopic PC-3luc prostate tumor model in nude mice (bioluminescence, immunofluorescence); format: in vivo, Balb/c nu/nu mice
# Procedure: The microenvironment of a developing tumor is important in cancer development and metastasis. A xenogeneic orthotopic model of prostate cancer was established to provide a minimally disruptive microenvironment for this cancer in live mice.
# In vivo and ex vivo bioluminescence imaging was performed and analyzed using an IVIS imaging system 200 series (Xenogen, Caliper Life Sciences, Hopkinton, Mass.). Bioluminescent signal was induced by i.p. injection of D-luciferin (150 mg/kg in PBS) 8 minutes prior to in vivo imaging. For ex vivo imaging, D-luciferin (300 mg/kg) was injected 7 minutes prior to necropsy. Organs of interest were immersed in a solution of D-luciferin at 150 mg/ml.
# (§1) Upon sacrifice, mouse prostate tissues were immersed in OCT medium (Tissue Teck®). Five-micrometer frozen sections were stained with hematoxylin-eosin (H&E). For immunofluorescence, unstained prostate sections were fixed with acetone or methanol. For staining of nerves, fixed sections were incubated in H2O2 to quench endogenous peroxidase and non-specific binding was blocked with goat serum in bovine serum albumin (BSA) solution and the avidin/biotin blocking kit (Vector Laboratories, Burlingame, Calif.). Sections were incubated with a rabbit anti-TH antibody (Millipore, Billerica, Mass.), or anti-VAChT antibody (Phoenix Pharmaceuticals, Inc., Burlingame, Calif.), or anti-NF-L antibody (Millipore), or anti-NF-H antibody (Abcam, Cambridge, Mass.) and then with a secondary biotinylated goat anti-rabbit antibody (Vector Laboratories). Signal was amplified using the Vectastain Elite ABC Kit (Vector Laboratories) and visualized using the Tyramide Signal Amplification kit for TRITC (PerkinElmer, Boston, Mass.).
# (§2) For proliferative cell quantification, sections were incubated with a rabbit polyclonal anti-Ki67 (Abcam) and then Alexafluor 568-conjugated goat anti-rabbit antibody (Molecular Probes, Carlsbad, Calif.).
# (§3) Human tumors were induced by orthotopic surgical implantations of 1×10^5 PC-3luc cells into six- to eight-week-old Balb/c nu/nu mice. Ten days after cell injection (day 0), the animals were randomized into the different groups and received the appropriate drugs, as indicated. 6OHDA or vehicle was injected at day 0 (100 mg/kg) and day 2 (250 mg/kg), and human recombinant G-CSF treatment was begun on day 4 (Amgen, 250 μg/kg/day, every 12 hours, 8 divided doses, i.p., in 5% dextrose). A second cycle was administered eight weeks after graft and animals were sacrificed three weeks after the last injection of G-CSF (i.e., 11 weeks after graft). In other experiments, 2×10^5 PC-3luc cells were orthotopically injected into nu/nu Adrβ2^tm1Bkk/J+/+ Adrβ3^tm1Lowl/J+/+, nu/nu Adrβ2^tm1Bkk/J−/−, nu/nu Adrβ3^tm1Lowl/J−/− and nu/nu Adrβ2^tm1Bkk/J−/− Adrβ3^tm1Lowl/J−/−. In selected experiments, 2×10^6 LNCaP-luc cells were injected in nu/nu Adrβ2^tm1Bkk/J+/+ Adrβ3^tm1Lowl/J+/+ and nu/nu Adrβ2^tm1Bkk/J−/− Adrβ3^tm1Lowl/J−/− mice. For the transgenic model, one-, two- or five-month-old c-Myc mice were injected with 6OHDA or surgically sympathectomized according to protocols described above and sacrificed 30 days later.
# A second cycle was administered at week four and mice were sacrificed one week later (five weeks after graft). For cholinergic experiments using the nu/nu Chrm1^tm1Stl+/+ and nu/nu Chrm1^tm1Stl−/− animals, mice were sacrificed at week six post-graft. For the survival study, grafted mice were treated as described hereinabove from week 4, every two weeks for up to 25 weeks or until death. Disease progression was monitored by bioluminescence scanner. […] One week later, mice received a second round of treatment and were then sacrificed at month four.
# PC-3luc cells [2] = assay: PC-3luc cell proliferation / cytotoxicity in vitro (MTT); format: cell-based, human; settings: G-CSF, 96 hours, three concentrations
# Procedure: A cell proliferation assay was performed on human PC-3 prostate tumor cells after 96 hours of treatment by G-CSF at three different concentrations by comparison with human leukemic cells (HL-60 and U937). Cell proliferation was quantified by a cell viability assay using MTT (3-[4,5-dimethylthiazole-2-yl]-2,5-diphenyltetrazolium bromide (Sigma). The percentage of viable cells was calculated by comparing the optical density (OD) of the treated samples with those incubated with vehicle. Methods were carried out as described by Magnon, et al., Cancer Res, 65, 4353-61 (2005); incorporated herein by reference in its entirety.
# murine fetal neurons = assay: Neurite outgrowth in fetal neuronal cultures; format: cell-based, mouse; settings: G-CSF, cultivation for 6 days
# Procedure: To evaluate neurite growth, cultures were fixed for 10 minutes at −20° C. with 5% glacial acetic acid/95% ethanol and then incubated with an anti-phosphorylated NF-H antibody (Sigma, clone NE14) and a rabbit anti-microtubule-associated protein-2 antibody (Chemicon), followed by Alexafluor488-conjugated goat anti-mouse antibody and Alexafluor568-conjugated goat anti-rabbit antibody (Molecular probes). For G-CSFR staining, mouse fetal neurons in culture were fixed with methanol and then incubated with a rabbit anti-G-CSFR (Santa-Cruz biotechnology, Santa Cruz, Calif.) and Alexafluor568-conjugated goat anti-rabbit antibody (Molecular probes). Neurite outgrowth was analyzed objectively from 40 random fields (field area=0.6 mm^2) per growth condition using the “Neurite Outgrowth” module of Metamorph software (MDSAT).
# Neuronal cultures were prepared from embryonic day 15 fetal neocortex as described in Dobrenis et al., J Neurosci. Res. 82(3):306-315 (2005), incorporated herein by reference. Briefly, after enzymatic and mechanical tissue dissociation, cells were plated at 2.5×10^4/cm^2 (day 0) and treated with 20 μg/ml 5-fluoro-2′ deoxyuridine and 50 μg/ml uridine at day 4 for 24 hours to eliminate glial growth. At day 1, cultures were maintained in serum-free medium and incubated with G-CSF at different concentrations (0, 500, 1000 ng/ml) until day 7.
# [3] = test system: prostate cancer in cMyc mice; assay: cMyc transgenic mouse model of prostate cancer (mPIN, invasive cancer zones); format: in vivo; settings: G-CSF; 11 weeks of age
# Procedure: To investigate further the activity of G-CSF on tumor development using a genetic mouse model, transgenic mice expressing human cMyc under the ARR2/probasin promoter expressed specifically in the prostate (hereafter cMyc mice) were evaluated. This transgenic model leads to the complete penetrance of mouse prostatic intraepithelial neoplasia (mPIN) from postnatal week 2, progressing to invasive adenocarcinomas between 3 to 6 months of age (FIG. 2m). […] The development of invasive cancer was associated with a broad infiltration of NF-L+ neo-fibers by comparison with control animals (FIG. 2o). Thus, the increased tumor/normal epithelial cell proliferation following G-CSF administration is associated with (i.e., is correlated to) the development of new nerve fibers in the primary tumor. Accordingly, a method of treating cancer in a subject such as a human patient or non-human animal (e.g., non-human mammal) comprises administering a prophylactically or therapeutically effective amount of an inhibitor of NF-L+ neo-fibers. In some embodiments, the method comprises administering a prophylactically or therapeutically effective amount of an inhibitor of G-CSF.
# as §3
# To ascertain the role of sympathetic innervation in tumor initiation using a genetic model, the effect of chemical or surgical sympathectomy on prostate cancer in cMyc mice was evaluated. For this study, transgenic cMyc mice expressing human c-Myc under the ARR2/probasin promoter expressed specifically in the prostate (AAR2/Pbsn-MYC) were used. This transgenic model leads to the complete penetrance of mouse prostatic intraepithelial neoplasia (mPIN) from postnatal week 2, progressing to invasive adenocarcinomas between 3 to 6 months of age (FIG. 6e). To this end, mice were chemically sympathectomized one month prior to histological analyses.
# Disease progression was monitored by bioluminescence scanner. […] Mice were sacrificed at week 10.
# healthy prostate = assay: Healthy (tumor-free) prostate: nerve density, epithelial cell proliferation, apoptosis, Chrm1 expression; format: in vivo, mouse
# Procedure: as §1, §2
# For apoptotic cell quantification, prostate sections were fixed with 4% paraformaldehyde (PFA) and stained with the Mebstain Apoptosis Kit according to manufacturer's recommendations (MBL International, Woburn, Mass.). Basement membranes were stained with a rat polyclonal anti-α2laminin antibody (Abcam) followed by Alexafluor647-conjugated goat anti-rat antibody (Molecular Probes).
# Gene expression levels were analyzed from RNA extracted, using the TRIzol solution (Invitrogen, Carlsbad, Calif.), from PC-3, DU145, LNCaP cell lines or prostates from Balb/c nu/nu mice by quantitative real-time PCR, as described previously (Mendez-Ferrer, Nature, 452:442-447 (2008)).
molecule,measurement,setting,value
B1,tumor cell proliferation in the primary tumors (Ki67 staining),"PC-3luc cells [1]; G-CSF 250 μg/kg/day, orthotopic PC-3luc",significantly increased
same,TH+ fibers against 6OHDA-induced damage,PC-3luc cells [1]; G-CSF after 6OHDA,protected
same,development of primary tumors initially sympathectomized with 6OHDA,PC-3luc cells [1]; G-CSF after 6OHDA,rescued
same,metastases in 6OHDA-lesioned animals,PC-3luc cells [1]; G-CSF after 6OHDA,did not induce
same,invasion of inguinal lymph nodes and metastases,"PC-3luc cells [1]; G-CSF alone, bioluminescence, week 11",induced
same,size of the primary tumor,PC-3luc cells [1]; G-CSF treatment,did not affect
same,infiltration of VAChT+ parasympathetic neo-nerves,PC-3luc cells [1]; immunofluorescence of tumors,selectively promoted
same,density of newly formed NF-L+ nerves in prostate tumors,"PC-3luc cells [1]; vs PBS, 11 weeks",significantly higher densities
same,proliferation of PC-3luc tumor cells in vitro,PC-3luc cells [2],could not stimulate
same,axonal outgrowth vs vehicle-treated controls,murine fetal neurons,about 2 fold
same,dendrite outgrowth,murine fetal neurons,unchanged
same,frequency of mPIN,[3],"modest, but significant, effect"
same,number of invasive cancer zones,[3],dramatically increased
same,proliferation of healthy epithelial cells (anti-Ki67 staining),healthy prostate; G-CSF treatment,led to proliferation
same,density of NF-L+ nerve fibers in healthy (tumor-free) prostate,"healthy prostate; three weeks after G-CSF, vs PBS control",higher density
same,Chrm1 expression in the prostate gland,"healthy prostate; three weeks after last G-CSF injection, Q-PCR",tended to increase
